Source: publication doi:10.1101/2021.06.10.447992 (bioRxiv, 2021)

Biological target: the molecule itself
Assay: AUC

Protein | binding result | stoichiometry N
Y137C COA7 pathogenic variant, recombinant, GST-free (natural protein, human) GPLGSMAGMVDFQDEEQVKSFLENMEVECNYHCYHEKDPDGCYRLVDYLEGIRKNFDEAAKVLKFNCEENQHSDSCYKLGAYYVTGKGGLTQDLKAAARCFLMACEKPGKKSIAACHNVGLLAHDGQVNEDGQPDLGKARDCYTRACDGGYTSSCFNLSAMFLQGAPGFPKDMDLACKYSMKACDLGHIWACANASRMYKLGDGVDKDEAKAEVLKNRAQQLHKEQQKGVQPLTFG | binds | –
Cytochrome c oxidase assembly factor 7 (COA7), recombinant, GST-free (natural protein, human) GPLGSMAGMVDFQDEEQVKSFLENMEVECNYHCYHEKDPDGCYRLVDYLEGIRKNFDEAAKVLKFNCEENQHSDSCYKLGAYYVTGKGGLTQDLKAAARCFLMACEKPGKKSIAACHNVGLLAHDGQVNEDGQPDLGKARDYYTRACDGGYTSSCFNLSAMFLQGAPGFPKDMDLACKYSMKACDLGHIWACANASRMYKLGDGVDKDEAKAEVLKNRAQQLHKEQQKGVQPLTFG | – | 2
